Laboratory results: patent US20240239894A1 (AstraZeneca / MedImmune, published 2024)
Changes are numbered by the printed parent chain.

Experiments:
[1] = biological target: T1, Human B7-H4-Fc (Human B7H4 ECD, Fc_6His) (human); assay: HTRF binding, human IgG1
T1 construct: also called FcHis6 tagged human B7-H4
T1 sequence (Q7Z7D3 whole entry, looked up): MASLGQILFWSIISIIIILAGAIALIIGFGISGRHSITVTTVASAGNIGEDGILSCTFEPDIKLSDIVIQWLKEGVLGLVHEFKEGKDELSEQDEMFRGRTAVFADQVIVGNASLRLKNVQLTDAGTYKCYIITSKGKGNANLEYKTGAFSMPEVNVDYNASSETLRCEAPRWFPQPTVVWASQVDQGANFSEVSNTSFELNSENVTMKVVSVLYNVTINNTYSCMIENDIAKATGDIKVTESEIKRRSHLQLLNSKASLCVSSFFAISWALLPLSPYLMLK

[2] = biological target: T2, Cyno B7-H4-Fc (Cyno B7H4 ECD, FcTM_6His) (cynomolgus monkey); assay: HTRF binding, human IgG1
T2 construct: extracellular domain; also called cynomolgus B7-H4-Fc

[3] = biological target: T3, Murine B7-H4-Fc (Mouse B7H4 ECD, Fc_6His) (mouse, UniProt Q7TSP5 25-257); assay: HTRF binding, human IgG1
T3 construct: extracellular domain; also called mouse B7-H4-Fc; FcHis6 tagged murine B7-H4
T3 sequence (Q7TSP5 whole entry, looked up): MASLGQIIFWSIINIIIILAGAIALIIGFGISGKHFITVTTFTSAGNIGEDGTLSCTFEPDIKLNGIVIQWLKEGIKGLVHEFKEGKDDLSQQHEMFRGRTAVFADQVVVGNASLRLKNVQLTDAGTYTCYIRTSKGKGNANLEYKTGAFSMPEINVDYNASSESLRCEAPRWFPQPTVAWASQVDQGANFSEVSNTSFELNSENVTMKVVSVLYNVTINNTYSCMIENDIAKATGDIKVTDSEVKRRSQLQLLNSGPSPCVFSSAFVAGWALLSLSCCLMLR

[4] = biological target: T4, Human B7-H4 ECD-Flag-His10 (monomeric) (human, UniProt Q7Z7D3 25-259); assay: Octet BLI, hIgG1 on Protein G (n = 1)
T4 construct: Minimally biotinylated for KinExA; also called hB7H4-ECD-Flag-His10; B7-H4-FLAG
T4 sequence: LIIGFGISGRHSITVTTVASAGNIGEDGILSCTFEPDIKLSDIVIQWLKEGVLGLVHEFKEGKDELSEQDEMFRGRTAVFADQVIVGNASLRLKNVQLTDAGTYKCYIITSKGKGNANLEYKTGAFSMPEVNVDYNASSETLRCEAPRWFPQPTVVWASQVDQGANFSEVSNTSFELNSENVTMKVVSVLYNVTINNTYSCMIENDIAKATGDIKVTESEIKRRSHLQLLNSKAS

[5] = biological target: T5, Murine B7-H4 ECD-Flag-His10 (monomeric) (mouse, UniProt Q7TSP5 25-257); assay: Octet BLI, hIgG1 on Protein G (n = 1)
T5 construct: extracellular domain; also called FlagHis10 murine B7-H4
T5 sequence (looked up): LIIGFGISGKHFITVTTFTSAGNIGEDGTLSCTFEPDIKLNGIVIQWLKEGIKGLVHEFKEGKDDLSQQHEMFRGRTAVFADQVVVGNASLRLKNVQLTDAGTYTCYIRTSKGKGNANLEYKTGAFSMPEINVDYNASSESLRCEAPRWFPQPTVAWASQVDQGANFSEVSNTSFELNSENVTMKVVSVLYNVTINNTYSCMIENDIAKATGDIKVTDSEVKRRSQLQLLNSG

[6] = biological target: T6, Human B7H4 ECD (SV), splice variant, 10His_FLAG (human); assay: Octet BLI, hIgG1 on Protein G (n = 1)
T6 construct: also called B7-H4-SV

huHHLA2 = biological target: T7, huHHLA2 (human, UniProt Q9UM44 23-344); assay: ELISA, absorbance 450 nm, antigen human HHLA2 GST
T7 construct: Sourced antigen; construct not described; also called Human HHLA2
T7 sequence (looked up): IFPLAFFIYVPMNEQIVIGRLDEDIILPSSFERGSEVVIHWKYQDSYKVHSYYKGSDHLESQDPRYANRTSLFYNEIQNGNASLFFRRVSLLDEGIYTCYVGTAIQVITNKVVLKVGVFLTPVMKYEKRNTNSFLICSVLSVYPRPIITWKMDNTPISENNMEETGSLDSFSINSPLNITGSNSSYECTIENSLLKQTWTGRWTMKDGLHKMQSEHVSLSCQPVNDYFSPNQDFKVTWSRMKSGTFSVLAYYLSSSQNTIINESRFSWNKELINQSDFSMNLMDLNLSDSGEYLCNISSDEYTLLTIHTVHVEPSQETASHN

huBTN1A1 = biological target: T8, huBTN1A1 (human, UniProt Q13410 27-242, limits assumed); assay: ELISA, absorbance 450 nm, antigen human BTN1A1 GST
T8 construct: Sourced antigen; construct not described; also called Human BTN1A1
T8 sequence (looked up): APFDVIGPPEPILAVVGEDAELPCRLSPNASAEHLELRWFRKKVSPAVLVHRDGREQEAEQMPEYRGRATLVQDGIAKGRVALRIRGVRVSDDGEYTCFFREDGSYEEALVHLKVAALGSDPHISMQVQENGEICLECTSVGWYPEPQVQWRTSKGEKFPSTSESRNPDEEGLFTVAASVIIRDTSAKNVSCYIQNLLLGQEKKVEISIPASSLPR

huBTN3A2 = biological target: T9, huBTN3A2 (human, UniProt P78410 30-248, limits assumed); assay: ELISA, absorbance 450 nm, antigen human BTN3A2 GST
T9 construct: Sourced antigen; construct not described; also called Human BTN3A2

huB7-H3 = biological target: T10, huB7-H3 (human, UniProt Q5ZPR3 29-461, limits assumed); assay: ELISA, absorbance 450 nm, antigen human B7-H3 (ECD) Fc
T10 construct: Sourced antigen; construct not described; also called Human B7-H3
T10 sequence (looked up): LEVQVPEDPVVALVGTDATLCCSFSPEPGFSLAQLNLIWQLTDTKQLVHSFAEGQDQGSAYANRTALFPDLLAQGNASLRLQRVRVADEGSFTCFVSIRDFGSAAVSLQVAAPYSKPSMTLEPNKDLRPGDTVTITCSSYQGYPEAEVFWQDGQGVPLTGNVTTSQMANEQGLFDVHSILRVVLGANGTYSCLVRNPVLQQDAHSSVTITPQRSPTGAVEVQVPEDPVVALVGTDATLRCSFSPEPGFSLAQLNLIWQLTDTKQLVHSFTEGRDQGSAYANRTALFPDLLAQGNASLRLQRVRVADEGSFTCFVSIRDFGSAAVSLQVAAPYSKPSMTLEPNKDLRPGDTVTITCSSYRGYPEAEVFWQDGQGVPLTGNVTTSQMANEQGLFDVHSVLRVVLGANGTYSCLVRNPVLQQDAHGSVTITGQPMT

huB7-H1 = biological target: T11, huB7-H1 (human, UniProt Q9NZQ7 19-238); assay: ELISA, absorbance 450 nm, antigen human B7-H1(ECD) F10H
T11 construct: Sourced antigen; construct not described; also called Human B7-H1

huB7-H2 = biological target: T12, huB7-H2 (human, UniProt O75144 19-258); assay: ELISA, absorbance 450 nm, antigen human B7-H2 (ECD) F10H
T12 construct: Sourced antigen; construct not described; also called Human B7-H2
T12 sequence (looked up): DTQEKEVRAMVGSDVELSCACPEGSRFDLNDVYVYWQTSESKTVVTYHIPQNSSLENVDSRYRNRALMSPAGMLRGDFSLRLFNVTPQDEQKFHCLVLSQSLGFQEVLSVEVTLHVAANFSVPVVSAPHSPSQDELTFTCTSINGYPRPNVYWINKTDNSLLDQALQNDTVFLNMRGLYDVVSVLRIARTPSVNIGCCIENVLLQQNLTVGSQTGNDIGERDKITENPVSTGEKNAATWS

T9 sequence (P78410 30-248 limits assumed): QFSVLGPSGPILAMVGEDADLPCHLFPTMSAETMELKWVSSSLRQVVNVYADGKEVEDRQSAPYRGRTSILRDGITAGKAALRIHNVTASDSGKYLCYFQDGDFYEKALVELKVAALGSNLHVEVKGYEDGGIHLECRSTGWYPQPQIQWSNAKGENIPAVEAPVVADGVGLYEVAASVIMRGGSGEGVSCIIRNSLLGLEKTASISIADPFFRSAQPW
T11 sequence (Q9NZQ7 19-238 limits assumed): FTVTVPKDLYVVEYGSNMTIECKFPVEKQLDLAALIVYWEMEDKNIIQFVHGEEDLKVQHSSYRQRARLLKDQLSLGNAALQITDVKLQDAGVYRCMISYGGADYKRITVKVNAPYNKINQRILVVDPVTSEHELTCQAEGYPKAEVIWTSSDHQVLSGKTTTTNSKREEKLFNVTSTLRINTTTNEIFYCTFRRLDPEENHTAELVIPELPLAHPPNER

B1: ZY0EPQ-E02 human IgG1 (antibody, V domains shown)
VH: QVQLQQWGAGLLKPSETLSLTCAVYGGSFSGYYWNWIRQPPGKGLEWIGEINHSGSTNYNPSLKSRVTILVDTSKNQFSLKLSSVTAADTAVYYCARNLYNWNLDSWGQGTLVTVSS
VL: DIQMTQSPSSLSASVGDRVTITCRASQGIRNDLGWYQQKPGRAPKRLIYVASSLQSGVPSRFSGSGSGTEFTLTISSLQPEDFATYYCLQHNSYPRTFGQGTKVEIK
EC50 [1]: 0.38 nM | Max [1]: 1130 | EC50 [2]: 0.33 nM | Max [2]: 987 | EC50 [3]: 1.49 nM | Max [3]: 279 | Kd [4]: 24 nM | koff [4]: 0.00208 s⁻¹ | kon [4]: 85900 M⁻¹ s⁻¹ | Kd [5]: 498 nM | koff [5]: 0.0498 s⁻¹ | kon [5]: 100000 M⁻¹ s⁻¹ | Kd [6]: 1030 nM | koff [6]: 0.00252 s⁻¹ | kon [6]: 2460 M⁻¹ s⁻¹

B2: human ZY0EPQ-E02 (antibody, V domains shown)
VH: B1 VH
VL: B1 VL
binding result (huHHLA2): no binding (tested: about 10 µg/ml (antigen)) | binding result (huBTN1A1): no binding (tested: 10 µg/ml (antigen)) | binding result (huBTN3A2): no binding (tested: about 10 µg/ml (antigen)) | binding result (huB7-H3): no binding | binding result (huB7-H1): no binding (tested: 10 µg/ml (antigen)) | binding result (huB7-H2): no binding (tested: 10 µg/ml (antigen))

B3: ZY0EO5-E07 human IgG1 (antibody, V domains shown)
VH: QVQLQESGPGLVKPSQTLSLTCTVSGGSISSGGYYWSWIRQHPGKGLEWIGNIYYSGSTYYNPSLKSRVTISVDTSKNQFSLKLSSVTAADTAVYYCAREKALASVIPSGYENYYVVDVWGQGTTVTVSS
VL: DIQLTQSPSFLSASVGGRVTITCWASQGIAGYLAWYQQKPGKAPKLLIYAASTLQSGVPSRFSGSGSGTEFTLTISSLQPEDFATYYCQHLNSYPLTFGGGTKVEIK
notes: also called ZY0E05-E07; E05-E07
EC50 [1]: 0.19 nM | Max [1]: 1710 | EC50 [2]: 0.18 nM | Max [2]: 1360 | EC50 [3]: 0.21 nM | Max [3]: 1300 | Kd [4]: 14.6 nM | koff [4]: 0.000318 s⁻¹ | kon [4]: 21700 M⁻¹ s⁻¹ | Kd [5]: 23.2 nM | koff [5]: 0.000415 s⁻¹ | kon [5]: 17900 M⁻¹ s⁻¹ | Kd [6]: 182 nM | koff [6]: 0.000528 s⁻¹ | kon [6]: 2910 M⁻¹ s⁻¹

B4: ZY0EQD-E02 human IgG1 (antibody, V domains shown)
VH: B1 VH with N58S, L70S, N98V, L104V
VL: B1 VL with G28D, L33V, R42K, V50A, S53R
EC50 [1]: 0.35 nM | Max [1]: 1240 | EC50 [2]: 0.28 nM | Max [2]: 1130 | EC50 [3]: 1.4 nM | Max [3]: 167 | Kd [4]: 14.9 nM | koff [4]: 0.00321 s⁻¹ | kon [4]: 216000 M⁻¹ s⁻¹ | Kd [5]: 625 nM | koff [5]: 0.213 s⁻¹ | kon [5]: 341000 M⁻¹ s⁻¹ | Kd [6]: 834 nM | koff [6]: 0.00349 s⁻¹ | kon [6]: 4190 M⁻¹ s⁻¹

B5: ZY0EOB-F05 human IgG1 (antibody, V domains shown)
VH: B3 VH with G26D, S85N, R99T, S105T, I107T, V116T
VL: B3 VL with G17D, A30S, G31S
EC50 [1]: 0.15 nM | Max [1]: 1820 | EC50 [2]: 0.14 nM | Max [2]: 1480 | EC50 [3]: 0.19 nM | Max [3]: 1320 | Kd [4]: 11.7 nM | koff [4]: 0.000362 s⁻¹ | kon [4]: 31000 M⁻¹ s⁻¹ | Kd [5]: 19.8 nM | koff [5]: 0.000493 s⁻¹ | kon [5]: 24900 M⁻¹ s⁻¹ | Kd [6]: 127 nM | koff [6]: 0.000598 s⁻¹ | kon [6]: 4710 M⁻¹ s⁻¹

B6: ZY0EP0-C07 human IgG1 (antibody, V domains shown)
VH: QVQLVESGGVLVKPGGSLRLSCAASGFTLSDYYMSWIRQAPGMGLEWVSYISSSGSTIYYTDSVKGRFTISRDSAKNSLYLQMNSLRAEDTAVYYCARDGVGFDYWGQGTLVTVSS
VL: EIVLTQSPGTLSLFPGERATLSCRASQSVSSSYLAWYQQKPGQSPRLLIYAASSRATGIPDRFSGSGSGTDFTLTISRLEPEDFAVYYCQQYGSSPLYTFGQGTKLEIK
notes: also called ZY0EPO-C07
EC50 [1]: 0.3 nM | Max [1]: 1220 | EC50 [2]: 0.33 nM | Max [2]: 946 | EC50 [3]: 0.18 nM | Max [3]: 1320 | Kd [4]: 7 nM | koff [4]: 0.000363 s⁻¹ | kon [4]: 48800 M⁻¹ s⁻¹ | Kd [5]: 9 nM | koff [5]: 0.000551 s⁻¹ | kon [5]: 60200 M⁻¹ s⁻¹
